Source: patent US20230094463A1 (TRUEBINDING, published 2023)
Positions count from the first letter of the chain named.

B1: 14H10.2C9 (antibody, V domains shown)
VH: QIQLVQSGPELKKPGETVKISCKASGYTFTTYGMGWVKQAPGKDLKWMGWINTYSGVPTYADDFKGRFAFSLETSASTAYLQISNLKNEDTATYFCSTPYEYDGAYWGQGTLVTVSA
VL: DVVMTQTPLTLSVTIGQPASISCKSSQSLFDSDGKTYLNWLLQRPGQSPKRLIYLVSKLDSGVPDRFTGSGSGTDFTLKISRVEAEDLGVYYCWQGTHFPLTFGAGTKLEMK
B2: 12G5.D7 (antibody, V domains shown)
VH: QVQLKQSGAELVRPGASVKLSCKASGYTFTDYYINWVKQRPGQGLEWIARIYPGTGNTDYNEKFKGRATLTAEKSSSTAYMQLSSLTSEDSAVYFCARFAYYYGSGGYFDYWGHGTTLTVSS
VL: DILMTQSPSSMSVSLGDTVSITCHASQGINSNMGWLQQKPGKSFKGLIYHATNLEDGVPSRFSGSGSGADYSLTISSLESEDFADYYCVQYAQFPPTFGSGTKLEIK
B3: 2D10.2B2 (antibody, V domains shown)
VH: QVQLQQSGPELVKPGASVKISCKASGYTFTDYYINWVKQRPGQGLEWIGWIYPGSNDTKYNEKFKGKATLTVDTSSSTAYMQLGSLTSEDSAVYFCANYFGCSGWFFDVWGTGTTVTVSS
VL: DIVMTQAAFSNPVTLGTSASISCRSSKSLLHSDGITYLYWYLQRPGQSPQLLIYRMSNLASGVPDRFSGSGSGTDFTLRISRVEAEDVGVYYCAQMIEFPLTFGAGTILELK
B4: 4A11.2B5 (antibody, V domains shown)
VH: QVQLQQSGPELVKPGASVKISCKASGYSFTNYYIHWVKQRPGQGLEWIGWIYPGSGNTNYNEKFKGKATLTADTSSSTTNMQLSSLTSEDSAVYYCSTAPGGFDVWGSGTTVTVSS
VL: B3 VL with I97L, I108K
B5: 13A12.2E5 (antibody, V domains shown)
VH: QIQLVQSGPELKKPGETVKISCKTSGYKFKTYVMSWVKQAPGKALKWMGWINTYSGVPTYADDFKGRFAFSLETSASTAYLEIINLKNEDTATYFCARDGNYGDPMDYWGQGTSVTVSS
VL: DVVMTQTPLTLSVAIGQPASISCKSSQSLLYTNGKTYLNWLLQRPGQSPKRLIYLLSKLDSGVPDRFSASGSGTDFTLKISRVEAEDLGVYYCLQSTHFPLTFGAGTKLEMK
B6: 24D12.2H9 (antibody, V domains shown)
VH: QVQLKQSGPGLVQPSQSLSITCTVSGFSLTSYGVHWVRQAPGKGLEWLGVIWSGGSTDYNAAFMSRLSISKDNSKSQVFFKMNSLQADDTAIYYCAKSPDGYDVAWFGYWGQGTLVTVSA
VL: DIVMTQSHKFMSTSVGDRVSITCKASQDVRTAVAWYQQKPGQSPKLLIYWASTRHTGVPDRFTGSGSGTDFTLTLSNVQSEDLADYFCQQYSSYPWTFGGGTKLEIK

Legend:
[1] = molecular target: T1, Human Galectin-3 protein (Acro Biosystems, GA3-H5129) (human, UniProt P17931 2-250); test: ELISA, blocking of INSR binding to coated Gal3
T1 construct: Bought protein; also called Gal3-ECD-His; Gal3-His; not shown: linker-spaced 6-histidine tag

[2] = molecular target: T1, Human Galectin-3 protein (Acro …); test: SPR (Biacore T200), antibody captured, Galectin-3 as analyte
[3] = molecular target: T2, Human GAL3 protein (TrueBinding, QCB200349 / QCB200352; R&D Systems, 8259-GA) (human, UniProt P17931 2-250); test: blocking ELISA (GAL3 coated; antibody + biotinylated ITGaV)
T2 construct: also called human galectin-3

[4] = molecular target: T2, Human GAL3 protein (TrueBinding, …); test: blocking ELISA (GAL3 coated; antibody + biotinylated ITGb3)
[5] = molecular target: T1, Human Galectin-3 protein (Acro …); test: blocking ELISA (Gal3 coated; antibody 3 µg/mL + INSR)
[6] = molecular target: T2, Human GAL3 protein (TrueBinding, …); test: blocking ELISA (GAL3 coated; antibody + biotinylated ITGa3)
[7] = molecular target: T1, Human Galectin-3 protein (Acro …); test: ELISA, blocking of INSR binding to coated Gal3; remark: listed apart in the source

Binder | Gal3-INSR Blocking @ 3 µg/mL [1] | Kd [2] | percent blockade of GAL3-ITGaV interaction [3] | percent blockade of GAL3-ITGb3 interaction [4] | Gal3-INSR binding remaining, % of unblocked sample [5] | percent blockade of GAL3-ITGa3 interaction [6] | reduction of Gal3-INSR binding (%) [5] | IC50 (read off the curve) [7]
B1 | 100% | 0.562 nM | > 90% | > 90% | < 5% | > 90% | – | –
B2 | 27% | 1.9 nM | < 30% | < 10% | – | < 35% | ≤ 30% | –
B3 | 100% | 0.753 nM | > 90% | > 90% | < 5% | > 90% | – | ~0.5 µg/mL
B4 | 100% | 5.22 nM | – | – | < 5% | – | – | –
B5 | 97% | 8.2 nM | – | > 90% | < 5% | > 90% | – | –
B6 | 22% | 4.13 nM | – | – | – | – | ≤ 30% | –
